Where two headings read alike, the source gives them in different places.
Experiments:
[1] = target: HpDprA(5-225), C-terminally truncated Helicobacter pylori DprA (H. pylori strain 26695) (UniProt B5ZAA1)
[2] = target: HpDprA(5-225), C-terminally truncated Helicobacter pylori DprA (H. pylori strain 26695) (UniProt B5ZAA1); assay: crystal structure
[3] = target: HpDprA(5-217), C-terminally truncated Helicobacter pylori DprA (H. pylori strain 26695) (UniProt B5ZAA1); assay: static light scattering
[4] = target: HpDprA(5-217), C-terminally truncated Helicobacter pylori DprA (H. pylori strain 26695) (UniProt B5ZAA1); assay: SEC
[5] = target: HpDprA(5-217), C-terminally truncated Helicobacter pylori DprA (H. pylori strain 26695) (UniProt B5ZAA1); assay: crystal structure
[6] = target: Full-length Helicobacter pylori DprA (DNA processing protein A, HP0333) (H. pylori strain 26695) (UniProt B5ZAA1); assay: SEC
HpDprA(5-217)WT [7] = target: T1, HpDprA(5-217)WT (Helicobacter pylori 26695, UniProt O25100 5-217); assay: EMSA
T1 sequence: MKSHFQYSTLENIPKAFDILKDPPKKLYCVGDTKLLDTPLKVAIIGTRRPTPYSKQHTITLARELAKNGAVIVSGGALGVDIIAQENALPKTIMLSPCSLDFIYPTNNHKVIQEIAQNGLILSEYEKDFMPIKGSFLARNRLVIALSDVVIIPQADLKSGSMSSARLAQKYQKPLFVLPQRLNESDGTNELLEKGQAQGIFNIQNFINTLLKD

HpDprA(5-217)WT [8] = target: T1, HpDprA(5-217)WT; assay: SEC/SLS
HpDprA(5-217)WT [9] = target: T1, HpDprA(5-217)WT; assay: EMSA; remark: listed apart in the source
HpDprA(5-217)WT [10] = target: T1, HpDprA(5-217)WT; assay: MST
HpDprA full-length = target: T2, HpDprA full-length (Helicobacter pylori 26695, UniProt O25100 1-270); assay: EMSA
T2 sequence: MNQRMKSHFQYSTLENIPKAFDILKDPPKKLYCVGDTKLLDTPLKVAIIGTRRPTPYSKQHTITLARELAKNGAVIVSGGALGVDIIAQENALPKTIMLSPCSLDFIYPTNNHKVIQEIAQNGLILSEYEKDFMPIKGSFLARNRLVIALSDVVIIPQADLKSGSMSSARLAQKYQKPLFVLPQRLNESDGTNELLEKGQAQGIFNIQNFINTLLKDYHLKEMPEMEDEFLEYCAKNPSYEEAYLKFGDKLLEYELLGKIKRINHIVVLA

For “HpDprA(5-225), C-terminally truncated Helicobacter pylori DprA (from UniProt B5ZAA1 5-225) (domain or fragment)”, the stoichiometry N [1] was 2 and the stoichiometry N [2] was 2.

“HpDprA(5-217), C-terminally truncated Helicobacter pylori DprA (from UniProt B5ZAA1 5-217) (domain or fragment)” showed a stoichiometry N [3] of 2, a stoichiometry N [4] of 2 and a stoichiometry N [5] of 2.

Work on “Full-length Helicobacter pylori DprA (DNA processing protein A, HP0333) (from UniProt B5ZAA1 1-266) (natural protein)” yielded a stoichiometry N [6] of 2.

TTTTTTTTTTTTTTTTTTTT (ssDNA) [dT20]: binds (HpDprA(5-217)WT [7]).

B1: dT60 (ssDNA)
DNA: TTTTTTTTTTTTTTTTTTTTTTTTTTTTTTTTTTTTTTTTTTTTTTTTTTTTTTTTTTTT
B1: binds (HpDprA(5-217)WT [8]).

TTTTTTTTTTTTTTTTTTTTTTTTTTTTTTTTTTTTTTTT (ssDNA) [dT40]: binds (HpDprA(5-217)WT [9]).

AAAAAAAAAAAAAAAAAAAAAAAAAAAAAAAAAAA (ssDNA) [dA35] gave a Kd (HpDprA(5-217)WT [10]) of 1200 ± 35.3 nM.

TTTTTTTTTTTTTTTTTTTTTTTTTTTTTTTTTTTTTTTTTTTTTTTTTT (ssDNA) [dT50]: binds (HpDprA(5-217)WT [9]).

B2: dsDNA30 (dsDNA)
DNA 1: CCACAACTGGATGATGCGGCGAAGTACTGT
DNA 2: ACAGTACTTCGCCGCATCATCCAGTTGTGG
For B2, the Kd (HpDprA(5-217)WT [10]) was 831 ± 8.48 nM.

TTTTTT (ssDNA) [dT6]: no binding (HpDprA(5-217)WT [10]).

TACCTAACTGGATGAATCTGAGAACTACTGTGAAT (ssDNA) [dR35]: binds (HpDprA full-length).

With CCACAACTGGATGATGCGGCGAAGTACTGT (ssDNA) [dR30] the Kd (HpDprA(5-217)WT [10]) was 370 ± 8.82 nM.

TTTTTTTTTT (ssDNA) [dT10]: no binding (HpDprA(5-217)WT [10]).

Reference: PMC3950713
